Measurements: article PMC6006248, “CARK1 mediates ABA signaling by phosphorylation of ABA receptors” (Cell Discovery, 2018)
Substitutions are numbered along the chain they refer to. Names may count otherwise. Values belong to the molecule of their own block, whether it stands above or below them.

T1: CARK1-KD (Arabidopsis thaliana, UniProt Q9LUT0)
T1 construct: kinase domain, residues 50-353, 6xHis fusion (pET28a), E. coli Rosetta (DE3)
T1 sequence (Q9LUT0 50-353): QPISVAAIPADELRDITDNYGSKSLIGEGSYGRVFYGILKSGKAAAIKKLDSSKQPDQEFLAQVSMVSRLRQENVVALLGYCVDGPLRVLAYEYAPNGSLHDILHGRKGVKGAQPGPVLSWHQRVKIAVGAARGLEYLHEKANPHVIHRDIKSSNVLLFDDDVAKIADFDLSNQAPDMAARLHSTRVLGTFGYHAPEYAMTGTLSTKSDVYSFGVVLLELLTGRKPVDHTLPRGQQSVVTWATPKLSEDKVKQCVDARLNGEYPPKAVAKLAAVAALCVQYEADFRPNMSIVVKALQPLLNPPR

T2: RCAR11 (PYR1) with ABI1 (Arabidopsis thaliana, UniProt O49686)
T2 construct: recombinant receptor plus ABI1 phosphatase; tags and borders for this assay only in supplement; receptor dimeric; with Protein phosphatase 2C 56
T2 sequence (O49686 1-191): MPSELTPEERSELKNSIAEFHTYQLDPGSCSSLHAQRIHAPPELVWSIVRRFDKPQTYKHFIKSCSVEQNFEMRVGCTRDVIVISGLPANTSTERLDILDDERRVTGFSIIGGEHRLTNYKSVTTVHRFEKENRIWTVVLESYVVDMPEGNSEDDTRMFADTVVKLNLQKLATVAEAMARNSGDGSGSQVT
T2 sequence (P49597 1-434 partner): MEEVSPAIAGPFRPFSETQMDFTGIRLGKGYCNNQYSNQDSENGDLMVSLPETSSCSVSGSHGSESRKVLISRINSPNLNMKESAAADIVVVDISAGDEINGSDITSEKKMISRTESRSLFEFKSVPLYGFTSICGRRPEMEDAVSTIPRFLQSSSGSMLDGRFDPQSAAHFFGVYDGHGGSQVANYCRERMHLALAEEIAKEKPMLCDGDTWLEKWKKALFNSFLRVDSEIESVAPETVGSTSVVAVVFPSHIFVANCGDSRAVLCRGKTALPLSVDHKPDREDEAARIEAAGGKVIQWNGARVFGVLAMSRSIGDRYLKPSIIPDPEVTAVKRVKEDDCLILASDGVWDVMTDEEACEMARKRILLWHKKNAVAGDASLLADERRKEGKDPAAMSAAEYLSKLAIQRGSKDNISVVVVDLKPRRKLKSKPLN

T3: RCAR3 (PYL8) with ABI1 (Arabidopsis thaliana, UniProt Q9FGM1)
T3 construct: recombinant receptor plus ABI1 phosphatase; tags and borders for this assay only in supplement; receptor monomeric; with Protein phosphatase 2C 56
T3 sequence (Q9FGM1 1-188): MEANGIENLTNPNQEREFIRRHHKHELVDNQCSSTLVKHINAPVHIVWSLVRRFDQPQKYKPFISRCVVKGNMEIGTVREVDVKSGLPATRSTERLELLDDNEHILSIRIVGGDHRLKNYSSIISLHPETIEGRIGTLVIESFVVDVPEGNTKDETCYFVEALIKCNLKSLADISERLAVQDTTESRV
T3 sequence (P49597 1-434 partner): T2 sequence (P49597 1-434 partner)

T4: RCAR3^T77D (phosphor-mimic form of RCAR3) (Arabidopsis, UniProt Q9FGM1 1-188, T77D)
T4 sequence: T3 sequence (Q9FGM1 1-188) with T77D

T5: RCAR3^T77A (Arabidopsis, UniProt Q9FGM1 1-188, T77A)
T5 sequence: T3 sequence (Q9FGM1 1-188) with T77A

T6: RCAR3^S85R (interface point mutant) (Arabidopsis, UniProt Q9FGM1 1-188, S85R)
T6 sequence: T3 sequence (Q9FGM1 1-188) with S85R

T7: ABI1 (Clade A PP2C) (Arabidopsis, UniProt P49597 1-434)
T7 construct: Protein phosphatase 2C ABI1, Arabidopsis; source: purified with the similar procedures as described for CARK1-KD
T7 sequence (looked up): T2 sequence (P49597 1-434 partner)

T8: His-tagged CARK1-KD (kinase domain of CARK1, residues 50-353) (Arabidopsis, UniProt Q9LUT0 50-353)
T8 construct: CARK1 (At3g17410), Arabidopsis, kinase domain, residues 50-353; Cloned into pET28a for the pull-down; details of the purification are in the Supplementary Information; source: E. coli Rosetta (DE3), purified
T8 sequence (looked up): T1 sequence (Q9LUT0 50-353)

B1: ABI1 (Clade A PP2C) (enzyme)
chain: T2 sequence (P49597 1-434 partner)
B2: wild-type RCAR3 (purified, SPR and phosphatase assay) (receptor, Arabidopsis, UniProt Q9FGM1 1-188, looked up)
chain: T3 sequence (Q9FGM1 1-188)
notes: ABA receptor RCAR3 (PYL8), Arabidopsis; a His-tagged RCAR3 is named for the in-gel kinase assay; also called PYL8; source: purified with the similar procedures as described for CARK1-KD
B3: RCAR3^T77A (receptor, Arabidopsis, UniProt Q9FGM1 1-188, looked up)
chain: T3 sequence (Q9FGM1 1-188) with T77A
notes: ABA receptor RCAR3 (PYL8), Arabidopsis, with T77A; source: purified with the similar procedures as described for CARK1-KD
B4: RCAR3^S85R (interface point mutant) (receptor, Arabidopsis, UniProt Q9FGM1 1-188, looked up)
chain: T3 sequence (Q9FGM1 1-188) with S85R
notes: ABA receptor RCAR3 (PYL8), Arabidopsis, with S85R; source: purified with the similar procedures as described for CARK1-KD
B5: GST-tagged RCAR11 (receptor, Arabidopsis, UniProt O49686 1-191, looked up)
chain: T2 sequence (O49686 1-191)
notes: ABA receptor RCAR11 (PYR1), Arabidopsis, cDNA cloned into pGEX-6P-1; Details are in the Supplementary Information; also called PYR1; source: E. coli, purified (similar procedures as for CARK1-KD)
B6: GST-tagged RCAR3 (receptor, Arabidopsis, UniProt Q9FGM1 1-188, looked up)
chain: T3 sequence (Q9FGM1 1-188)
notes: ABA receptor RCAR3 (PYL8), Arabidopsis, cDNA cloned into pGEX-6P-1; Details are in the Supplementary Information; also called PYL8; source: E. coli, purified (similar procedures as for CARK1-KD)
B7: RCAR3^T77D (phosphor-mimic form of RCAR3) (receptor, Arabidopsis, UniProt Q9FGM1 1-188, looked up)
chain: T3 sequence (Q9FGM1 1-188) with T77D
notes: ABA receptor RCAR3 (PYL8), Arabidopsis, with T77D; source: purified with the similar procedures as described for CARK1-KD

Columns and labels:
[1] = molecular target: ABI1 (Clade A PP2C) (Arabidopsis) (UniProt P49597)
CARK1-KD = molecular target: T1, CARK1-KD; experiment: in vitro kinase assay, […] autoradiography; assay type: biochemical; conditions: labelled compound; autophosphorylation and phosphorylation of RCAR3/RCAR11
RCAR11 (PYR1) with ABI1 = molecular target: T2, RCAR11 (PYR1) with ABI1; experiment: in vitro Ser/Thr phosphatase assay of ABI1; assay type: biochemical; conditions: read-out is receptor-dependent inhibition of ABI1
RCAR3 (PYL8) with ABI1 = molecular target: T3, RCAR3 (PYL8) with ABI1; experiment: in vitro Ser/Thr phosphatase assay of ABI1; assay type: biochemical; conditions: read-out is receptor-dependent inhibition of ABI1
[2] = molecular target: T4, RCAR3^T77D (phosphor-mimic form of …); experiment: SPR
RCAR3^T77A = molecular target: T5, RCAR3^T77A; experiment: SPR
[3] = molecular target: T6, RCAR3^S85R (interface point mutant); experiment: SPR
ABI1 (Clade A PP2C) [4] = molecular target: B1; experiment: SPR
ABI1 (Clade A PP2C) [5] = molecular target: T7, ABI1 (Clade A PP2C); experiment: SPR; in vitro; who was immobilised and the conditions are not told in the main text (Supplementary Fig. S7A-E); conditions: both partners purified
[6] = molecular target: T8, His-tagged CARK1-KD (kinase domain of …); experiment: pull-down; GST pull-down; His-tagged CARK1-KD or CARK1-KD^N204A (50, 100 and 200 μg) incubated with 100 μg of GST-tagged RCAR3 or RCAR11; SDS-PAGE and immunoblot; conditions: both partners purified

- phosphatase activity of ABI1 in vitro, without ABA: inhibitory effect [1]: 28%
Molecule: RCAR11^T78D (phosphor-mimic form of RCAR11) (from UniProt O49686 1-191) (receptor)

Molecule: Nc1ncnc2c1ncn2[C@@H]1O[C@H](COP(=O)(O)OP(=O)(O)OP(=O)(O)O)[C@@H](O)[C@H]1O [ATP]
- in vitro kinase assay, 32P autoradiography (CARK1-KD): wild-type CARK1-KD showed strong autophosphorylation activity

Molecule: CC1=CC(=O)CC(C)(C)[C@@]1(O)/C=C/C(C)=C\C(=O)O [ABA]
- in vitro Ser/Thr phosphatase assay of ABI1 (RCAR11 (PYR1) with ABI1): phosphatase activity of ABI1 was totally abolished by either forms of RCAR3/RCAR11
- in vitro Ser/Thr phosphatase assay of ABI1 (RCAR3 (PYL8) with ABI1): phosphatase activity of ABI1 was totally abolished by either forms of RCAR3/RCAR11

Molecule: B1
- koff [2]: 0.000867 s⁻¹
- koff (RCAR3^T77A): 0.0046 s⁻¹
- koff [3]: 0.00676 s⁻¹

Molecule: B2
- koff (ABI1 (Clade A PP2C) [4]): 0.000822 s⁻¹
- Kd (ABI1 (Clade A PP2C) [5]): 0.88 µM

Molecule: B3
- Kd (ABI1 (Clade A PP2C) [5]): ~6.4 µM

Molecule: B4
- Kd (ABI1 (Clade A PP2C) [5]): 11.3 µM

Molecule: B5
- binding result [6]: binds

Molecule: B6
- binding result [6]: binds

Molecule: B7
- Kd (ABI1 (Clade A PP2C) [5]): ~0.2 µM
